Columns and labels:
Assay in all cases: cell-based or functional assay
[1] = molecular target: HIV-1 Env of pseudovirus Ce1172_H1 (HIV-1)
[2] = molecular target: HIV-1 Env of pseudovirus 1012_11_TC21_3257 (HIV-1)
[3] = molecular target: HIV-1 Env of pseudovirus Ce1176_A3 (HIV-1)
[4] = molecular target: HIV-1 Env of pseudovirus RHPA4259.7 (HIV-1)
[5] = molecular target: HIV-1 Env of pseudovirus Q842.d12 (HIV-1)
[6] = molecular target: HIV-1 Env of pseudovirus 1054_07_TC4_1499 (HIV-1)
[7] = molecular target: HIV-1 Env of pseudovirus CNE53 (HIV-1)
[8] = molecular target: HIV-1 Env of pseudovirus R1166.c01 (HIV-1)
[9] = molecular target: HIV-1 Env of pseudovirus QH0692.42 (HIV-1)
[10] = molecular target: HIV-1 Env of pseudovirus 9004SS_A3_4 (HIV-1)
[11] = molecular target: HIV-1 Env of pseudovirus P0402_c2_11 (HIV-1)
[12] = molecular target: HIV-1 Env of pseudovirus CNE30 (HIV-1)
[13] = molecular target: HIV-1 Env of pseudovirus SC422661.8 (HIV-1)
[14] = molecular target: HIV-1 Env of pseudovirus MS208.A1 (HIV-1)
[15] = molecular target: HIV-1 Env of pseudovirus X2088_c9 (HIV-1)
[16] = molecular target: HIV-1 Env of pseudovirus CNE19 (HIV-1)
[17] = molecular target: HIV-1 Env of pseudovirus CNE58 (HIV-1)
[18] = molecular target: HIV-1 Env of pseudovirus BJOX028000.10.3 (HIV-1)
[19] = molecular target: HIV-1 Env of pseudovirus Q259.d2.17 (HIV-1)
[20] = molecular target: HIV-1 Env of pseudovirus 263-8 (HIV-1)
[21] = molecular target: HIV-1 Env of pseudovirus 928-28 (HIV-1)
[22] = molecular target: HIV-1 Env of pseudovirus 1006_11_C3_1601 (HIV-1)
[23] = molecular target: HIV-1 Env of pseudovirus X1632_S2_B10 (HIV-1)
[24] = molecular target: HIV-1 Env of pseudovirus 6240_08_TA5_4622 (HIV-1)
[25] = molecular target: HIV-1 Env of pseudovirus HIV-0013095-2.11 (HIV-1)
[26] = molecular target: HIV-1 Env of pseudovirus BJOX009000.02.4 (HIV-1)
[27] = molecular target: HIV-1 Env of pseudovirus BF1266.431a (HIV-1)
[28] = molecular target: HIV-1 Env of pseudovirus T278-50 (HIV-1)
[29] = molecular target: HIV-1 Env of pseudovirus 6535.3 (HIV-1)
[30] = molecular target: HIV-1 Env of pseudovirus T251-18 (HIV-1)
[31] = molecular target: HIV-1 Env of pseudovirus CNE5 (HIV-1)
[32] = molecular target: HIV-1 Env of pseudovirus 3016.v5.c45 (HIV-1)
[33] = molecular target: HIV-1 Env of pseudovirus Ce704809221_1B3 (HIV-1)
[34] = molecular target: HIV-1 Env of pseudovirus 0815.v3.c3 (HIV-1)
[35] = molecular target: HIV-1 Env of pseudovirus Du172.17 (HIV-1)
[36] = molecular target: HIV-1 Env of pseudovirus Q23.17 (HIV-1)
[37] = molecular target: HIV-1 Env of pseudovirus 89-F1_2_25 (HIV-1)
[38] = molecular target: HIV-1 Env of pseudovirus R2184.c04 (HIV-1)
[39] = molecular target: HIV-1 Env of pseudovirus 3365.v2.c2 (HIV-1)
[40] = molecular target: HIV-1 Env of pseudovirus C1080.c03 (HIV-1)

BG18 IgG (354BG18) (antibody)
IC50 in TZM-bl assay [1]: 0.002 µg/mL | IC80 in TZM-bl assay [1]: 0.007 µg/mL | IC50 in TZM-bl assay [2]: 0.003 µg/mL | IC80 in TZM-bl assay [2]: 0.012 µg/mL | IC50 in TZM-bl assay [3]: 0.004 µg/mL | IC80 in TZM-bl assay [3]: 0.012 µg/mL | IC50 in TZM-bl assay [4]: 1.44 µg/mL | IC80 in TZM-bl assay [4]: > 30 µg/mL | IC50 in TZM-bl assay [5]: 14 µg/mL | IC80 in TZM-bl assay [5]: > 30 µg/mL | IC50 in TZM-bl assay [6]: 0.005 µg/mL | IC80 in TZM-bl assay [6]: 0.022 µg/mL | IC50 in TZM-bl assay [7]: 0.003 µg/mL | IC80 in TZM-bl assay [7]: 0.011 µg/mL | IC50 in TZM-bl assay [8]: > 30 µg/mL | IC80 in TZM-bl assay [8]: > 30 µg/mL | IC50 in TZM-bl assay [9]: 0.013 µg/mL | IC80 in TZM-bl assay [9]: 0.042 µg/mL | IC50 in TZM-bl assay [10]: 0.005 µg/mL | IC80 in TZM-bl assay [10]: 0.056 µg/mL | IC50 in TZM-bl assay [11]: 0.005 µg/mL | IC80 in TZM-bl assay [11]: 0.029 µg/mL | IC50 in TZM-bl assay [12]: 0.019 µg/mL | IC80 in TZM-bl assay [12]: 0.059 µg/mL | IC50 in TZM-bl assay [13]: 0.005 µg/mL | IC80 in TZM-bl assay [13]: 0.021 µg/mL | IC50 in TZM-bl assay [14]: > 30 µg/mL | IC80 in TZM-bl assay [14]: > 30 µg/mL | IC50 in TZM-bl assay [15]: 0.004 µg/mL | IC80 in TZM-bl assay [15]: 0.009 µg/mL | IC50 in TZM-bl assay [16]: > 30 µg/mL | IC80 in TZM-bl assay [16]: > 30 µg/mL | IC50 in TZM-bl assay [17]: 0.024 µg/mL | IC80 in TZM-bl assay [17]: 0.073 µg/mL | IC50 in TZM-bl assay [18]: 0.474 µg/mL | IC80 in TZM-bl assay [18]: 14.9 µg/mL | IC50 in TZM-bl assay [19]: > 30 µg/mL | IC80 in TZM-bl assay [19]: > 30 µg/mL | IC50 in TZM-bl assay [20]: 1.38 µg/mL | IC80 in TZM-bl assay [20]: 7.55 µg/mL | IC50 in TZM-bl assay [21]: 0.761 µg/mL | IC80 in TZM-bl assay [21]: 3.93 µg/mL | IC80 in TZM-bl assay [22]: 0.004 µg/mL | IC50 in TZM-bl assay [23]: > 30 µg/mL | IC80 in TZM-bl assay [23]: > 30 µg/mL | IC50 in TZM-bl assay [24]: 0.003 µg/mL | IC80 in TZM-bl assay [24]: 0.01 µg/mL | IC50 in TZM-bl assay [25]: 10.5 µg/mL | IC80 in TZM-bl assay [25]: 30 µg/mL | IC50 in TZM-bl assay [26]: 24.4 µg/mL | IC80 in TZM-bl assay [26]: > 30 µg/mL | IC50 in TZM-bl assay [27]: > 30 µg/mL | IC80 in TZM-bl assay [27]: > 30 µg/mL | IC50 in TZM-bl assay [28]: 2.95 µg/mL | IC80 in TZM-bl assay [28]: 12.9 µg/mL | IC80 in TZM-bl assay [29]: 0.005 µg/mL | IC50 in TZM-bl assay [30]: 0.086 µg/mL | IC80 in TZM-bl assay [30]: 0.328 µg/mL | IC50 in TZM-bl assay [31]: > 30 µg/mL | IC80 in TZM-bl assay [31]: > 30 µg/mL | IC50 in TZM-bl assay [32]: > 30 µg/mL | IC80 in TZM-bl assay [32]: > 30 µg/mL | IC50 in TZM-bl assay [33]: 4.39 µg/mL | IC80 in TZM-bl assay [33]: > 30 µg/mL | IC50 in TZM-bl assay [34]: 0.16 µg/mL | IC80 in TZM-bl assay [34]: 5.96 µg/mL | IC50 in TZM-bl assay [35]: > 30 µg/mL | IC80 in TZM-bl assay [35]: > 30 µg/mL | IC50 in TZM-bl assay [36]: 0.006 µg/mL | IC80 in TZM-bl assay [36]: 0.02 µg/mL | IC50 in TZM-bl assay [37]: > 30 µg/mL | IC80 in TZM-bl assay [37]: > 30 µg/mL | IC50 in TZM-bl assay [38]: > 30 µg/mL | IC80 in TZM-bl assay [38]: > 30 µg/mL | IC50 in TZM-bl assay [39]: 0.013 µg/mL | IC80 in TZM-bl assay [39]: 0.037 µg/mL | IC50 in TZM-bl assay [40]: 5.37 µg/mL | IC80 in TZM-bl assay [40]: > 30 µg/mL

Reference: patent US11325966
